The assay deals with leptin receptor (OBR-2K), fused to luciferase (OBR-2K Rluc) or to YFP (OBR-2K YFP) (UniProt P48357). Briefly: FRET or BRET; HEK293T cells co-transfected with OBR-2K Rluc (donor) and OBR-2K YFP (acceptor); pre-treated with homocysteine (1-10 mM) for 4 h, then leptin (10 nM) for 30 min; coelenterazine h 20 uM; result in mBRET units. A general note: In BRET a luciferase serves as donor, and the signal depends on an acceptor being close.

Regarding “leptin receptor (OBR-2K), fused to luciferase (OBR-2K Rluc) or to YFP (OBR-2K YFP) (from UniProt P48357 22-1165)”, the fold increase in BRET signal upon leptin stimulation is 3 fold.

Values taken from publication PMC9746958.
